Assay results taken from patent US20150203548A1 (GOVERNMENT OF THE UNITED STATES OF AMERICA AS REPRESENTED …, published 2015).

Molecular target: T1, Staphylococcal Enterotoxin B (SEB) (UniProt P01552 28-266)
T1 sequence: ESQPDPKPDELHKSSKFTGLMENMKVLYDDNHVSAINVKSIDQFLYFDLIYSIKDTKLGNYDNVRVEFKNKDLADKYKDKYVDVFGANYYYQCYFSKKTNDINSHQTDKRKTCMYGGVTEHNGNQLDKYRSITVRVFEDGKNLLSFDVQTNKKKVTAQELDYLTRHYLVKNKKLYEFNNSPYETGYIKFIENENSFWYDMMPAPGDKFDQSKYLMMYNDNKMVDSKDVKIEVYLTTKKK
Assay: SPR (ProteON XPR36), antigen-coated chip

B1: sdAb A3 (VHH)
VHH: EVQLVESGGGLVQAGDSLRLSCTASGRTFSRAVMGWFRQAPGKEREFVAAISAAPGTAYYAFYADSVRGRFSISADSAKNTVYLQMNSLKPEDTAVYYCAADLKMQVAAYMNQRSVDYWGQGTQVTVSS
B1: binds.
